Test results as given in patent US20210030857A1 (NGM BIOPHARMACEUTICALS, published 2021).

T1: human beta klotho protein (soluble, used in Biacore) (human, UniProt Q86Z14 53-997, limits assumed)
T1 construct: also called HuKLB; huKLB
T1 sequence: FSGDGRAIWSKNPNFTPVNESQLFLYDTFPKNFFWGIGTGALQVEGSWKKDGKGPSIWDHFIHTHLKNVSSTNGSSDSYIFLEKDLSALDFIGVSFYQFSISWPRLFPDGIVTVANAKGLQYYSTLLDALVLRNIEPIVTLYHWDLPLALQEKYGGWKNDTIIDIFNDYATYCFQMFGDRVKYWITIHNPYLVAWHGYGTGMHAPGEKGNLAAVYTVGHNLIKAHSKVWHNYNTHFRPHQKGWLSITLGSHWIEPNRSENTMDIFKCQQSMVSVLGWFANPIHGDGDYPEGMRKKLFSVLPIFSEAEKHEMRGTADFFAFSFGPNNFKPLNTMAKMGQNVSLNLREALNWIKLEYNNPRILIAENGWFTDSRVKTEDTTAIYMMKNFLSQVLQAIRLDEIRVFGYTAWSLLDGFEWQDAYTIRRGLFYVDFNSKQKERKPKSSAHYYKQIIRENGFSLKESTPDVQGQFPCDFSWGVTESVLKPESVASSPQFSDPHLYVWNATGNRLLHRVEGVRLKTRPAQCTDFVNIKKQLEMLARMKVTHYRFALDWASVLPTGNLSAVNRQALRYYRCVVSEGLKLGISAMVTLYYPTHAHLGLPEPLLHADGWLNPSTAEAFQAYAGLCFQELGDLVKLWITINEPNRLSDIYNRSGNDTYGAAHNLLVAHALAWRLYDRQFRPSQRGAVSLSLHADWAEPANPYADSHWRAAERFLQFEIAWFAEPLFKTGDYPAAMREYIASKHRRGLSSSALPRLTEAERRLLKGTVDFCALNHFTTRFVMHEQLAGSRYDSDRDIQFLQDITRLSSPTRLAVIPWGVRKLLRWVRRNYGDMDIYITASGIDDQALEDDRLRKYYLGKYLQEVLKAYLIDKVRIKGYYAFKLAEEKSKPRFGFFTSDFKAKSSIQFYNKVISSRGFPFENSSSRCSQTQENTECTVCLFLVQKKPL

T2: cynomolgus monkey beta klotho protein (soluble, used in Biacore) (cynomolgus monkey (Macaca fascicularis), UniProt Q86Z14 53-996 (human entry), limits assumed)
T2 construct: Protein in solution; also called Cyno KLB; cyKLB
T2 chain: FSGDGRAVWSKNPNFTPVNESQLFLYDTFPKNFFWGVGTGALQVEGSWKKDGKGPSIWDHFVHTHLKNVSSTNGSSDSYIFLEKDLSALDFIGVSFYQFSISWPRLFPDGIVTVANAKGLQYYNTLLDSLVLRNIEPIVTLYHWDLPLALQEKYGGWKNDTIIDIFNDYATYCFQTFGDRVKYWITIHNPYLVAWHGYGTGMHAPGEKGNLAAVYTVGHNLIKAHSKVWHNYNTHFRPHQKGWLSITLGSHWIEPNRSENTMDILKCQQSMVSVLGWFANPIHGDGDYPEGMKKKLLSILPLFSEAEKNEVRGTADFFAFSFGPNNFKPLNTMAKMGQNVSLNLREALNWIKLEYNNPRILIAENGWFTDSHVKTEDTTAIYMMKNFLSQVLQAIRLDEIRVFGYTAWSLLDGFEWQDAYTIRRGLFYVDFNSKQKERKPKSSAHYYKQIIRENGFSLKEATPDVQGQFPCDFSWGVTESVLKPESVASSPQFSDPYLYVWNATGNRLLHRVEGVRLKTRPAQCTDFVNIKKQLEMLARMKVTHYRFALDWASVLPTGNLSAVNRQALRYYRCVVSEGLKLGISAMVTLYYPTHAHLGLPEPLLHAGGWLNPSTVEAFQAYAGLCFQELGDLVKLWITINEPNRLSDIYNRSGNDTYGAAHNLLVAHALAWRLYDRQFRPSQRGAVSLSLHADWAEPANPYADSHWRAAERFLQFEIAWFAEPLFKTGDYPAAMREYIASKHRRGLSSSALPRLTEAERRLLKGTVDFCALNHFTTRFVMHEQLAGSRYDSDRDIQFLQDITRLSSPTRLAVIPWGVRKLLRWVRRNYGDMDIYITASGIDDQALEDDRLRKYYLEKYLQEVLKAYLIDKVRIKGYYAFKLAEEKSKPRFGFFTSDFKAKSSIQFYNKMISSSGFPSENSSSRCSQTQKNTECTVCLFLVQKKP

T3: human beta klotho expressed on cells (human, UniProt Q86Z14 1-1044)
T3 construct: also called HuKLB overexpressing cells; Human KLB
T3 sequence: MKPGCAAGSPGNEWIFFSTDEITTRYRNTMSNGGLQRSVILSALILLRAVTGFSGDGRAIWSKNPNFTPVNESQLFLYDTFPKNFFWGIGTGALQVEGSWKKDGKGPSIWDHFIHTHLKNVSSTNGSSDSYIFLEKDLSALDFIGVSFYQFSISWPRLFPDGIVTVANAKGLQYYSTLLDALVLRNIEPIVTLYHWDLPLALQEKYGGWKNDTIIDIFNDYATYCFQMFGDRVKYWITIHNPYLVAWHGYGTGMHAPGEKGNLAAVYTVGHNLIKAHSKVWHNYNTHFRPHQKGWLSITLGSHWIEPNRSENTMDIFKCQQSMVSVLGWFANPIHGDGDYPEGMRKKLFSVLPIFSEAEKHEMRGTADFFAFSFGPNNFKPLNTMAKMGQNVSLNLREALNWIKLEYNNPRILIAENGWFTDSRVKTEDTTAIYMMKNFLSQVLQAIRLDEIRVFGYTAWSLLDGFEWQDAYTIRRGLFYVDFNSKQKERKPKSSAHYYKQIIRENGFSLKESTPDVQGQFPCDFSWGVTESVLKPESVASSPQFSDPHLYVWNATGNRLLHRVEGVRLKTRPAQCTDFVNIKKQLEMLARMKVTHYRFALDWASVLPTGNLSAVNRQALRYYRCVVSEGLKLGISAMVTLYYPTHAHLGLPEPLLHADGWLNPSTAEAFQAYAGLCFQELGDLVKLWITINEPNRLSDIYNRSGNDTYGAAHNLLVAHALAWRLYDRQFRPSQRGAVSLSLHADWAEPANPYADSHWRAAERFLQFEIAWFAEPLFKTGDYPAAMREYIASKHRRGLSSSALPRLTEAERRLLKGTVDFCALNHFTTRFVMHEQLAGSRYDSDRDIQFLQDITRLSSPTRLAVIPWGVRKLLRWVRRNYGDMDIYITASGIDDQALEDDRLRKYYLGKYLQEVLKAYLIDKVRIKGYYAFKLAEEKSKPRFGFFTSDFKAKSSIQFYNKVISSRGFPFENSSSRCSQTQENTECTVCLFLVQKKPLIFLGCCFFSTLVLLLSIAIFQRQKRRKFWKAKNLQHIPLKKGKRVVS


Key:
[1] = target: T4, human beta klotho / human FGFR1c receptor complex on cells (human, UniProt Q86Z14 1-1044; P11362 22-822); assay: cell-based or functional assay
Target sequence in this assay (P11362 22-822 limits assumed, one chain of several): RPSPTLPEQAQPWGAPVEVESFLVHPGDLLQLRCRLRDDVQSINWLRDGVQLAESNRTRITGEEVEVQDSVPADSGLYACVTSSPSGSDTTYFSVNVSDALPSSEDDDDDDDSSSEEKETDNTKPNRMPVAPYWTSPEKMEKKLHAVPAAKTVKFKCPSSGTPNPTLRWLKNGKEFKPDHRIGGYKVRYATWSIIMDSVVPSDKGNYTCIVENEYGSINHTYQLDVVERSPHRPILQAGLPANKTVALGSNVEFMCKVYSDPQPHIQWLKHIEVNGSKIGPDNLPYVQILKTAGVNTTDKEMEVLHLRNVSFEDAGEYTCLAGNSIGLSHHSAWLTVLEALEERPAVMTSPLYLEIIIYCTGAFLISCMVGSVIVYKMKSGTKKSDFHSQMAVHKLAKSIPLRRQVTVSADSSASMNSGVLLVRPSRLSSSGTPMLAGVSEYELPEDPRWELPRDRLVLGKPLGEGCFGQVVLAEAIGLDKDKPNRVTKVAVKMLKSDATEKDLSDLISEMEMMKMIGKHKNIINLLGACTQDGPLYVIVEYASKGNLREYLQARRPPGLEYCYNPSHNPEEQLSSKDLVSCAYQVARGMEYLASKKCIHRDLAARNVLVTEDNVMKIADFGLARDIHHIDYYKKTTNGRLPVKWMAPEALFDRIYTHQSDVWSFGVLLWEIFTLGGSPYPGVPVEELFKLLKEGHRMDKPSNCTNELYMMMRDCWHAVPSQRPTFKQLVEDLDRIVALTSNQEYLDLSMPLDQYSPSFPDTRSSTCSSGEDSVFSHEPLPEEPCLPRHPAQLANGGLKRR

[2] = target: T1, human beta klotho protein (soluble, …); assay: Biacore SPR (as in Example 2)
[3] = target: T2, cynomolgus monkey beta klotho protein …; assay: Biacore SPR (as in Example 2)
[4] = target: T3, human beta klotho expressed on cells; assay: FACS competition on HuKLB-overexpressing cells; row antibody unlabelled; competitor 5H23-Alexa647 (labelled, EC10); MFI of the label
Experimental: (§1) For example, for competition binding assays by FACS analysis, antibody standards were prepared that were conjugated to a fluorochrome using either A488 or A647 antibody labeling kit (Invitrogen) following manufacturer's instructions. A dose titration of the conjugated antibody standard was evaluated using HuKLB overexpressing cells. The plateau of the maximal signal of antibody binding is EC=100 and the background signal is EC=0. Competition by FACS against the fluorochrome labeled antibody was performed by pre-incubating HuKLB overexpressing cells with hybridoma supernatants for 15 minutes at room temperature. Without washing, an EC=10 concentration of A488 or A647 labelled antibody standard was added. EC=10 for an individual antibody was determined by 10% of signal using the maximum signal as (100%) and background signal as (0%). After 30 minutes at 4° C., cells are washed and analyzed by FACS. […] A partial competing antibody is one sample that show signal between labelled antibody alone and background. Antibodies that show complete competition against the same standard antibody are considered to be in the same bin.
(§2) Representative results are shown in Table 12 below reported as mean fluorescence intensity (MFI).

[5] = target: cynomolgus beta klotho / human FGFR1c receptor complex on cells (cynomolgus monkey (Macaca …)); assay: cell-based or functional assay
[6] = target: T4, human beta klotho / human FGFR1c …; assay: cell-based or functional assay; remark: listed apart in the source
Target sequence in this assay (P11362 22-822 limits assumed, chain 2 of 2, one chain of several): as the sequence (P11362 22-822 limits assumed, one chain of several) above

[7] = target: T4, human beta klotho / human FGFR1c …; assay: cell-based or functional assay; remark: listed apart in the source
[8] = target: T3, human beta klotho expressed on cells; assay: FACS competition on HuKLB-overexpressing cells; row antibody unlabelled; competitor 3I13-Alexa488 (labelled, EC10); MFI of the label
Experimental: as §1, §2

cynomolgus beta klotho / human FGFR1c receptor complex on cells (cynomolgus monkey (Macaca …)), sequence (chain, as listed by the source limits assumed, chain 1 of 2): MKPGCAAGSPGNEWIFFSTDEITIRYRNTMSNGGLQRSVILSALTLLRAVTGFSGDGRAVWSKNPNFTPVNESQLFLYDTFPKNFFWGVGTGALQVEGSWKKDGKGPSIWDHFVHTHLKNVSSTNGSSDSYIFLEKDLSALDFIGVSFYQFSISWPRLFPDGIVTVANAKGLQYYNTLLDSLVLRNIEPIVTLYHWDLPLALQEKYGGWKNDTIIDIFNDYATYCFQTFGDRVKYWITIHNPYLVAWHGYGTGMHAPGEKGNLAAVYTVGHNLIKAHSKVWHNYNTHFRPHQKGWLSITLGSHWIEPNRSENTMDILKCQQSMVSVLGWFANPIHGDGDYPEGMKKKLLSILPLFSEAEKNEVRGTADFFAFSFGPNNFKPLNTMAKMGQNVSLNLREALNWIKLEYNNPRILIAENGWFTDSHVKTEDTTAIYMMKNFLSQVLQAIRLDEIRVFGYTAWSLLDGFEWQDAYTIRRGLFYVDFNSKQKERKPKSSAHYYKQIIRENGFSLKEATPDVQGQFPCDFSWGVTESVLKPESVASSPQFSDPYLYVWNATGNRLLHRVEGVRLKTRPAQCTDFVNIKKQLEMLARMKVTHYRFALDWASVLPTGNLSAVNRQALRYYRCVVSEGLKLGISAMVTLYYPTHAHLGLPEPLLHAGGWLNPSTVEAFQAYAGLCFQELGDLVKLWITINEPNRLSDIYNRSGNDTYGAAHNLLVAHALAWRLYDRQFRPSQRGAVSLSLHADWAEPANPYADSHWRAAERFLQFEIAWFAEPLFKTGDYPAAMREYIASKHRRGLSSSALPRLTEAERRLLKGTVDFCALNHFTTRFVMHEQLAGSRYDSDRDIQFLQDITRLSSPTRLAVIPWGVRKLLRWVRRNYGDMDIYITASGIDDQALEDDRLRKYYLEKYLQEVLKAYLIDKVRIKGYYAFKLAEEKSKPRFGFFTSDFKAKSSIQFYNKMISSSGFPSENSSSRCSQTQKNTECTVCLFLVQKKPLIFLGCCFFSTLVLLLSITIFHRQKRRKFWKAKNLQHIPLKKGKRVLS
cynomolgus beta klotho / human FGFR1c receptor complex on cells (cynomolgus monkey (Macaca …)), sequence (chain, as listed by the source limits assumed, chain 2 of 2): as the sequence (P11362 22-822 limits assumed, one chain of several) above

EC50-adipocyte [1] [pM]	EC50 reporter assay [1] [pM]	Kd [2] [pM]	Kd [3] [pM]	Mean Florescence Intensity (MFI) [4] [MFI]	HEK293 cynoKLB/R1c reporter assay EC50, Experiment - A [5] [pM]	HEK293 cynoKLB/R1c reporter assay EC50, Experiment - B [5] [pM]	hAdip pERK assay EC50, Experiment - B [6] [nM]	HEK293 huKLB/R1c reporter assay EC50, Experiment - A [7] [pM]	HEK293 huKLB/R1c reporter assay EC50, Experiment - B [7] [pM]	Mean Florescence Intensity (MFI) [8] [MFI]	Binder
5500	680	230	590	–	–	–	–	–	–	–	humanized 5H23 antibody vH3-vL2 (antibody, human IgG1, kappa, V domains shown, Probably the same antibody as m13; also called vH3 (vL2 group)) VH: QVQLQQSGAEVKKPGASVKVSCKASGYTFTSYDINWVRQAPGQGLEWIGWIYPGDGSTKYNEKFKGKATITRDTSASTAYMELSSLRSEDTAVYFCARSDYYGSRSFAYWGQGTLVTVSS VL: DIVMTQSPDSLAVSLGERATINCRASKSVSTSGYVYMHWYQQKPGQPPKLLIYLASYLESGVPDRFSGSGSGTDFTLTISSVQAEDVAVYYCQHSRDLTFPFGGGTKLEIKR
–	–	–	–	2.2	2350	2450	1.3	231	127	29	antibody 1G19 (antibody, V domains shown, Murine monoclonal antibody) VH: QVQLQESGPGLVKPSQSLSLTCSVTGYSITSGYYWNWIRQFPGNKLEWMGYINYGGSNNYNPSLKNRISITRDTSKNQFFLKLTSVTTEDTATYYCARRGAYYSNYDSFDVWGTGTTVTVSS VL: DIKMTQSPSSMYASLGERVTITCKASQDINSYLSWFQQKPGKSPKTLIYRANRLVDGVPSRFSGSGSGQDYSLTISSLEYEEMGIYYCLQYDEFPYTFGGGTKLEIK
